We go through 167 variants from the RNAGym collection of RNA variant scans (doi:10.7554/elife.80360).

The labels stand for the following.
B1: Twister Ribozyme (parent)
chain: AACACUGCCAAUGCCGGUCCCAAGCCCGGAUAAAAGUGGAGGGGGCGG

Variants of B1 are the subject of this data set. Briefly: self-cleavage, relative activity (ratio to wild type); higher = more cleavage; co-transcriptional.
C21A G29U: the self-cleavage was 0.134.
With C19G G47A, the self-cleavage stood at 0.105.
With G43C G48C the figure was 0.219; with C5G A30C, 0.259; with C5U C25G, 0.149.
As to C9U U12C, the self-cleavage stood at 0.501.
On to A2C C46A, for which the self-cleavage is 0.0436.
On to A2G A30C, for which the self-cleavage is 0.23.
As for C19G G38A, the self-cleavage came out at 0.132.
In the case of A23U A33C, the self-cleavage was found to be 0.186.
For the variant G29U G48U, the self-cleavage was 0.867.
The result for G29U G48A reads 0.905.
For A35U G45U, the self-cleavage is 0.812.
With C19A G44A, the self-cleavage was found to be 0.685.
Consider C26A A32C, for which the self-cleavage turned out to be 0.575.
In the case of A4C G36U, the self-cleavage was determined as 0.0758.
Consider A4C G16C, for which the self-cleavage was 0.0536.
As for U18C G38C, the self-cleavage worked out at 0.523.
With A10U A23U, the self-cleavage amounted to 0.632.
For U18A G28C, the self-cleavage worked out at 0.185.
Turning to U6C C9A, the self-cleavage was 0.0857.
With C8A G38C the figure was 0.161.
Consider G36C G43U, for which the self-cleavage came out at 0.116.
Regarding C19U C25G, the self-cleavage stood at 0.176.
As for C19G C21A, the self-cleavage is 0.0839.
With G28C A33G, the self-cleavage amounted to 0.83.
U6A U31C: the self-cleavage came to 1.07.
Regarding A1U G24A, the self-cleavage turned out to be 0.062.
In the case of G13U C25U, the self-cleavage was found to be 0.129.
For C19A U37C, the self-cleavage came out at 0.0949.
Consider A2C C21U, for which the self-cleavage was found to be 0.0368.
With A11G A30C, the self-cleavage is 0.861.
In the case of G7C A33U, the self-cleavage worked out at 0.0354.
On to A4C G44U, for which the self-cleavage was determined as 0.134.
C3U G45U: the self-cleavage is 0.338.
For the variant G16A A32G, the self-cleavage amounted to 0.888.
Turning to U31C G39C, the self-cleavage was determined as 0.111.
The result for G28U G43U reads 0.285; that for A22G A23C, 0.115.
U18G A22U: the self-cleavage was 0.0775.
As for C20A A34C, the self-cleavage was found to be 0.102.
The result for G38U A40G reads 0.101; that for A10G A11U, 1.09; that for C9G G39U, 0.147.
Consider C26G G45C, for which the self-cleavage is 0.117.
For A35U A40U, the self-cleavage worked out at 0.253.
Take C9A C21A: the self-cleavage was 0.0865.
The result for G7C G45C reads 0.0912; that for C21G A33C, 0.152; that for A22G G47U, 0.136.
With G7A C14A the figure was 0.371; with C21A G41A, 0.27; with G24U A40C, 0.099.
With C15A C19A the figure was 0.0896; with A32C A35C, 0.911; with C20G G45C, 0.136.
Turning to U12A G28C, the self-cleavage worked out at 1.02.
The result for C26U G28C reads 0.134.
Take G38C G43A: the self-cleavage was found to be 0.149.
As for U37C G45A, the self-cleavage is 0.691.
On to C3U G42C, for which the self-cleavage stood at 0.159.
Consider G13C C14A, for which the self-cleavage was determined as 0.593.
For the variant A34U G42C, the self-cleavage worked out at 0.217.
For A11U G38C, the self-cleavage was 1.08.
For A32G G38A, the self-cleavage turned out to be 0.846.
For C21G C26G, the self-cleavage is 0.0411.
For A23U G44C, the self-cleavage was 0.578.
Consider C19G A40G, for which the self-cleavage is 0.135.
As to C21G G28A, the self-cleavage was 0.124.
On to A11U U18G, for which the self-cleavage stood at 0.0666.
As for G24U U37A, the self-cleavage came out at 0.0892.
Take C26G G39U: the self-cleavage is 0.103.
As for A33U G36C, the self-cleavage was 0.174.
Consider C20A C27U, for which the self-cleavage was 0.0852.
Turning to A1C A23G, the self-cleavage was determined as 0.145.
For A4C G45C, the self-cleavage worked out at 0.16.
Turning to G29A U37G, the self-cleavage was 0.395.
On to C14U A30G, for which the self-cleavage was 1.02.
Regarding G28A G38A, the self-cleavage was found to be 0.821.
Regarding C20U C27U, the self-cleavage amounted to 0.708.
On to G28C G36A, for which the self-cleavage is 0.292.
Take A23C C27U: the self-cleavage is 0.0937.
On to U6A G16A, for which the self-cleavage came out at 0.604.
Take A1G C19U: the self-cleavage was found to be 0.345.
On to A2U A23G, for which the self-cleavage was found to be 0.0976.
As to A22C G44U, the self-cleavage stood at 0.967.
In the case of G29C U37A, the self-cleavage is 0.259.
For the variant G41U G45A, the self-cleavage was determined as 0.596.
Turning to A2C U12C, the self-cleavage was 0.094.
For the variant G13C A22C, the self-cleavage was determined as 0.71.
C21G C27A: the self-cleavage was 0.0855.
With G38U G42A the figure was 0.129.
The result for G16C G43C reads 0.161; that for A1G A11U, 0.47; that for C21U G47C, 0.0939.
For C15U U31A, the self-cleavage was 0.785.
As for G13U G43C, the self-cleavage came to 0.137.
With A4U A22G, the self-cleavage came out at 0.0233.
On to A10G A34G, for which the self-cleavage worked out at 0.888.
For U6C C21A, the self-cleavage was found to be 0.0427.
Consider C14A A32C, for which the self-cleavage is 0.914.
As to C26U A30G, the self-cleavage worked out at 0.419.
For the variant G17U G42A, the self-cleavage turned out to be 0.104.
In the case of G29U G38U, the self-cleavage amounted to 0.666.
Regarding A23G A40C, the self-cleavage came out at 0.0453.
The result for C26U A35G reads 0.169.
As to A23U G28U, the self-cleavage amounted to 0.279.
On to A10C G39C, for which the self-cleavage was 0.172.
A10C G39A: the self-cleavage came to 0.601.
As for G17C G36U, the self-cleavage was found to be 0.0484.
For the variant C21G G42U, the self-cleavage came out at 0.111.
With C3A G41C, the self-cleavage is 0.07.
Consider G16A A22U, for which the self-cleavage is 0.631.
Turning to A4C C19G, the self-cleavage amounted to 0.0582.
Consider C8A G44U, for which the self-cleavage was 0.271.
Turning to G28C A30C, the self-cleavage was 0.848.
On to C21G A34G, for which the self-cleavage worked out at 0.0977.
For the variant A1U A23U, the self-cleavage was 0.0522.
The result for C9U G17C reads 0.0426.
For C9U G17U, the self-cleavage came out at 0.102.
The result for U31G A32C reads 0.946; that for A11C C19G, 0.138.
Turning to G7C U18C, the self-cleavage was found to be 0.0305.
As for C20A G45A, the self-cleavage was 0.144.
For the variant A2G U12A, the self-cleavage stood at 0.367.
With U12A A23G, the self-cleavage is 0.768.
G16C C26U: the self-cleavage amounted to 0.171.
The result for C20G G29A reads 0.189; that for A30G G38A, 0.853.
In the case of G13A A35C, the self-cleavage amounted to 1.02.
As for A11C G47U, the self-cleavage turned out to be 0.977.
Regarding A1G C27U, the self-cleavage is 0.36.
Turning to A23C C46U, the self-cleavage was determined as 0.486.
The result for C5G G16A reads 0.341.
With C26A G39A the figure was 0.107; with C26A G39U, 0.116; with G13U G48U, 0.357.
In the case of A30U G44A, the self-cleavage came out at 0.971.
For C20U G44A, the self-cleavage came to 1.
As for C21U A32C, the self-cleavage was found to be 0.107.
With G24C C25G the figure was 0.118; with C5U C14A, 0.673.
A11G C19A: the self-cleavage was 0.221.
On to C19G A35G, for which the self-cleavage came out at 0.0996.
Take G29C G39A: the self-cleavage stood at 0.143.
In the case of C27G C46U, the self-cleavage was found to be 0.105.
With C9U G44U the figure was 0.595.
For A11G C27G, the self-cleavage is 0.0637.
Consider G7C C9A, for which the self-cleavage amounted to 0.0747.
With C21U G45C the figure was 0.0779; with A40U, 0.158.
For the variant G7U C15G, the self-cleavage worked out at 0.0331.
With G39A A40U the figure was 0.161; with C14U A32U, 1.04.
Turning to G24C U31C, the self-cleavage was 0.108.
G42A G43U: the self-cleavage was determined as 0.134.
On to G28C A40U, for which the self-cleavage turned out to be 0.17.
For the variant G43C G45A, the self-cleavage was determined as 0.294.
For the variant G36U G39U, the self-cleavage was 0.147.
Consider G17C C21G, for which the self-cleavage came to 0.0972.
With A35U G43C the figure was 0.208.
Regarding C19A G39A, the self-cleavage amounted to 0.136.
As to C27A A35U, the self-cleavage was 0.742.
On to U6G G39A, for which the self-cleavage amounted to 0.12.
Turning to G17A A33C, the self-cleavage amounted to 0.384.
As to G16U G48C, the self-cleavage worked out at 1.06.
Turning to A33U G42C, the self-cleavage was 0.323.
